This note sets out measurements from article PMC2139800 (The Journal of Cell Biology, 1997).

In the experiment the target is F-actin (unlabeled) (rabbit, UniProt P68135 1-377). The experiment in a line: co-sedimentation.

B1: His6–l-afadin-C (aa 1631–1829) (domain or fragment)
chain: DRVRQEEDGRHQEEERVKRDAEEKRRQEEGYYSRLEAERRRQHEEAARRLLEPEEPGLSRPPLPQDYEPPSQSSAPSAPPPPPQRNASYLKTQVLSPDSLFTAKFVAYDDDDEEENYVPAGPNSYSGSAGTTAGTYDAPRDTREKLSRSQDADLPGSSGAPENLTFRERQRLFSQGQDVSDKVKASRKLTELENELNTK
In the case of B1, the “stoichiometry N” value is ~500 actin molecules per His6–l-afadin-C molecule.
